Reference: patent publication US12617830B2, “Analogues of PYY” (IP2IPO Innovations Limited, priority 2017, dated 2026)
Ends that are not written are not given here.

Key:
[1] = tested on: overnight fasted male Wistar rats; assay: Rat feeding experiment, single subcutaneous injection, food intake and body weight monitored for 6 days; assay type: in vivo; details: single subcutaneous injection of peptide in saline vs control saline; monitored for following 6 days; FIGS. 3A-3D, 4A-4D
Text: Animals were randomised into treatment groups, with stratification by body weight.

[2] = target: T1, human Neuropeptide Y Receptor Y2 (Homo sapiens, UniProt P49146); assay: In vitro receptor potency: inhibition of forskolin-stimulated cAMP in hY2 CHO-K1 cells; assay type: cell-based; details: for Average ratio to PYY2-36 ± SEM: ratio of example compound EC50 to PYY2-36 EC50, cAMP, hY2 CHO-K1 cells (DiscoverX), 0.02 mM forskolin, 30 minutes
T1 construct: host or cells: CHO-K1
T1 sequence (P49146 1-381): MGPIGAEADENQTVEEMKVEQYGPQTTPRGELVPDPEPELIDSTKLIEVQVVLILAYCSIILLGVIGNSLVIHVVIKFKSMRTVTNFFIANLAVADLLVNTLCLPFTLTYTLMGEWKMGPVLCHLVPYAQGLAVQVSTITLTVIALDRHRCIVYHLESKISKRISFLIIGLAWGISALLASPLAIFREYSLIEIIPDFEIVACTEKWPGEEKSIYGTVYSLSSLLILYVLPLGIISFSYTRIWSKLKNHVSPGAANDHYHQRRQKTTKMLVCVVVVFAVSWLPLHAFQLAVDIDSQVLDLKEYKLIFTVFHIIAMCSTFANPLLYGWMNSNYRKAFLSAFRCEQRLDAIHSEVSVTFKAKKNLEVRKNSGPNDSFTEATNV
Procedure: DiscoverX® hY2 CHO-K1 cells (10,000 cells per well (96 well plate)) were resuspended in media containing 0.2 mM IBMX and 0.02 mM forskolin (which stimulates cAMP production) and test peptides at a range of concentrations, for 30 minutes. The reaction stopped by lysing the cells and cAMP quantified 60 minutes later using Cisbio cAMP dynamic 2 kit.
Ten thousand cells per well (96 well plate) were resuspended in media containing 0.2 mM IBMX and 0.02 mM forskolin (which stimulates cAMP production) and test peptides at a range of concentrations, for 30 minutes. The reaction stopped by lysing the cells and cAMP quantified 60 minutes later using Cisbio cAMP dynamic 2 kit.

| Substance | reductions in food intake and body weight [1] | ability to inhibit forskolin production (potency compared with Y242) ([2]; hY2 CHO-K1 cells, compared with previous generation compound Y242, FIG. 2) | Average ratio to PYY2-36 ± SEM [2] |
| --- | --- | --- | --- |
| Pro-Ile-Lys-Pro-Glu-Ala-Pro-Gly-Glu-Gly-Ala-Ser-Pro-Glu-Glu-Leu-Leu-His-Tyr-Tyr-Ala-Ala-Leu-Arg-His-Phe-Leu-Asn-His-Val-Thr-Arg-Gln-Arg-Tyr-NH2 (PIKPEAPGEGASPEELLHYYAALRHFLNHVTRQRY-NH2) [Peptide Y1419] | a single initial dose is still active at 160 hours after administration | much more potent inhibitor than the previous generation of preferred compounds | 0.8 ± 0.16 |
| Y1421: example PYY analogue peptide; sequence given in FIGS. 1A-1D (PIKPEAPGQGASPEELLHYYAALRHFLNHVTRQRY-NH2) [Peptide Y1421] |  |  | 0.9 ± 0.09 |
| Y1518: example PYY analogue peptide; sequence given in FIGS. 1A-1D (PIKPEAPGEGASPEELLHYYAALRHFLNHLTRQRY-NH2) [Peptide Y1518] |  |  | 1.7 ± 0.13 |
